Molecular target: T1, recombinant cynomolgus monkey (Macaca fascicularis) transferrin receptor 1 (cTfR1) (cynomolgus monkey (Macaca fascicularis), UniProt Q5RDH6 87-760 (Pongo abelii entry), limits assumed)
T1 construct: Recombinant protein; also called cyTfR1; cyno TfR1
T1 chain: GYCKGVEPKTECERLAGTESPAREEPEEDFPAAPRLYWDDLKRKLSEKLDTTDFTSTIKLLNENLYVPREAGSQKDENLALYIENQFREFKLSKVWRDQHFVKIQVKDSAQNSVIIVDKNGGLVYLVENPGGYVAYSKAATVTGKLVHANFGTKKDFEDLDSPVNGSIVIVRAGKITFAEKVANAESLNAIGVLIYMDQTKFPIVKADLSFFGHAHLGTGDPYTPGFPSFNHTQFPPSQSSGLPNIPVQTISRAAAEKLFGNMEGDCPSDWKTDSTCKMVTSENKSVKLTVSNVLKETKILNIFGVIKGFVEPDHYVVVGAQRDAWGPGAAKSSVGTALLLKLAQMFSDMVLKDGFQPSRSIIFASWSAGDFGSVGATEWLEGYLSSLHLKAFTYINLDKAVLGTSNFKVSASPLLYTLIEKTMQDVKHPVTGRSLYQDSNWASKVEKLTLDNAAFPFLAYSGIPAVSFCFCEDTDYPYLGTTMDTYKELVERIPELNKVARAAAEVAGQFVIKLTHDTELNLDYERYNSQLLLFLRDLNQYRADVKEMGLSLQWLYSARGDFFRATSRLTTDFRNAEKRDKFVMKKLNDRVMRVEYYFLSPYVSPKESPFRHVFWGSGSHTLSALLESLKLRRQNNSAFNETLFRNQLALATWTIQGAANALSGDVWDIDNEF
Assay: Avg KD, antibody alone; table gives no method

Kd: 1 nM
B1: 15G11 (control anti-TfR1 antibody) (antibody, V domains shown)
VH: QVQLQQPGAELVKPGASVKLSCKASGYTFTSYWMHWVKQRPGQGLEWIGEINPTNGRTNYIEKFKSKATLTVDKSSSTAYMQLSSLTSEDSAVYYCARGTRAYHYWGQGTSVTVSS
VL: DIQMTQSPASLSVSVGETVTITCRASDNLYSNLAWYQQKQGKSPQLLVYDATNLADGVPSRFSGSGSGTQYSLKINSLQSEDFGTYYCQHFWGTPLTFGAGTKLELK

From US20230287108A1 (published 2023)
